Values quoted from earlier work, collected in publication PMC10974892.

How the values were obtained:
PhoE (Escherichia coli) = PhoE (Escherichia coli) (UniProt P02932)
[1] = molecular target: intelectin-1 (hIntL-1) (Homo sapiens) (UniProt Q8WWA0)
OmpC (Escherichia coli) = OmpC (Escherichia coli) (UniProt P06996)
UniProt P06996, sequence (P06996 22-367): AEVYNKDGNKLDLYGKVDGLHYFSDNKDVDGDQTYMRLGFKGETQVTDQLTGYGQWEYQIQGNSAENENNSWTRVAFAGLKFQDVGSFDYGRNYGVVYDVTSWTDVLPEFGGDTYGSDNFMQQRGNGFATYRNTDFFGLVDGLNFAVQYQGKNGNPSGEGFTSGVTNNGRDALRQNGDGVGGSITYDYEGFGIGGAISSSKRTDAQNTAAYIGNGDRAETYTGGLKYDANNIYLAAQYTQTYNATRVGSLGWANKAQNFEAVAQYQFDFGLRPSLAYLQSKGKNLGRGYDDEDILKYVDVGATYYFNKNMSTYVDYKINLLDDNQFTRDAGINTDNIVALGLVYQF

UniProt Q8WWA0, sequence (Q8WWA0 19-298): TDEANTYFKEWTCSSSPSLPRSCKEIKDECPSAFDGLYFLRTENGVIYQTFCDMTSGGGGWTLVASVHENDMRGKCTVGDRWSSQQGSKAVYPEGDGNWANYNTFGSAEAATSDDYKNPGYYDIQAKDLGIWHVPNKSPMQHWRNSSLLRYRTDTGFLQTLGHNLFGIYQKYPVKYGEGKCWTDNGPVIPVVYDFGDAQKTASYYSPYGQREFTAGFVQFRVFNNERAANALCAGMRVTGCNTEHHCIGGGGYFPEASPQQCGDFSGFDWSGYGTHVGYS
UniProt P02932, sequence (P02932 22-351): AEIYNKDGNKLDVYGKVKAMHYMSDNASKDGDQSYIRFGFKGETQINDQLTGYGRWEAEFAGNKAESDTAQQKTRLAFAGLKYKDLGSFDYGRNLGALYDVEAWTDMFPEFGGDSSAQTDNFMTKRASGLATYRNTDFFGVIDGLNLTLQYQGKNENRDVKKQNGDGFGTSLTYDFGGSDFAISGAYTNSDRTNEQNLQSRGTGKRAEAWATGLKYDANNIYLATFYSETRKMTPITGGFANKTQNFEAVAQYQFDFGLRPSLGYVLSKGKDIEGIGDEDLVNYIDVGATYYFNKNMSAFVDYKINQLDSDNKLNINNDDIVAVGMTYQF

In the case of lactoferrin (from UniProt P02788), the Kd (PhoE (Escherichia coli)) is given as 103 nM, the Kd [1] is given as 500 nM and the Kd (OmpC (Escherichia coli)) is given as 39 nM.
